The source of these data is publication PMC8854993, “Acetylation at Lysine 86 of Escherichia coli HUβ Modulates the DNA-Binding Capability of the Protein” (Frontiers in Microbiology, 2021).

The target in data set [1] is HUβ(K86ac) K86ac (Escherichia coli BL21(DE3)) (UniProt P0ACF4). Put plainly: EMSA. The settings on record: 4 µM HU dimer, 1 µM DNA; versus HUβ2; p < 0.05; 2-nt gap in bottom strand; 30 mM Tris pH 7.5, 100 mM NaCl, 0.02% Tween20, 0.5 mg/ml BSA; 30-bp DNA 1 µM, 18°C 10 min, 10% PAGE in TBE; long DNA 250 ng in 15 µL, 37°C 1 h, 0.5% agarose in …. For orientation: In EMSA bound probe runs differently from free probe, usually more slowly.
Sequence of HUβ(K86ac) K86ac (Escherichia coli BL21(DE3)) (P0ACF4 whole entry): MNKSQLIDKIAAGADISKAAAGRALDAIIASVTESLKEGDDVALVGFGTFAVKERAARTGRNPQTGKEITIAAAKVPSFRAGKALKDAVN

In data set [2] the target is HUα;HUβ (Escherichia coli BL21(DE3);Escherichia …, UniProt P0ACF0;P0ACF4 1-90;1-90, |). Put plainly: EMSA; heterodimer; higher affinity than homodimer; 30 mM Tris pH 7.5, 100 mM NaCl, 0.02% Tween20, 0.5 mg/ml BSA; 30-bp DNA 1 µM, 18°C 10 min, 10% PAGE in TBE; long DNA 250 ng in 15 µL, 37°C 1 h, 0.5% agarose in. As to conditions: protein: recombinant;recombinant; tags: C-terminal 6xHis;C-terminal 6xHis; copies: 1;1; three strands; 2-nt gap in bottom strand between S16 and S17; blunt outer ends.
Sequence of HUα;HUβ (P0ACF0 whole entry, chain 1 of 2): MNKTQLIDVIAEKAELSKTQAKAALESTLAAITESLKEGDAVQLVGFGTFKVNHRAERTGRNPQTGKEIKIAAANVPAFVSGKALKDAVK
Sequence of HUα;HUβ (P0ACF4 whole entry, chain 2 of 2): as the sequence (P0ACF4 whole entry) above

With “CCAACTTCCCTAACCCAGCTGCGATCCGTA / TACGGATCGCAGC / GGTTAGGGAAGTTGG [30-bp duplex with 2-nt gap]”, the binding signal (fold free DNA) in data set [1] was above 4.

B1: 30-bp duplex with 2-nt gap (dsDNA)
DNA 1: CCAACTTCCCTAACCCAGCTGCGATCCGTA
DNA 2: TACGGATCGCAGC
DNA 3: GGTTAGGGAAGTTGG
modifications: 2-nt gap in bottom strand
Regarding B1, in data set [2], the binding result was “binds”.
